Source: the DeepSol protein solubility set

Test: soluble on expression in E. coli; label from the status in PepcDB or PDB records

**Q.** Which “soluble on expression in E. coli” value does the source give for “MEIDELPSGTQDQKPDIDMNEIVGTHDILMLCFDTLRYDVSVAEEASGGTPVLNSCGNGWEKRHAPGNFTYPSHFAIFAGFLPSPAEPHMLRNRKWLFFPFQAGTGRIPPEGSYAFKEATFVQSLAQVGYETICIGGVNFFSKRNDIGRVFPGYFNKSYWLPTFGCTDKNSAANQVDFAVDKLEKYPADRKVFMYINFSAIHYPNCHYVEGKKKDDKESHAAALRYVDSQLPRLFEAFRRRSDTLVIALSDHGTCYGEDGYEYHCISHEKVYTVPYKHFILRKLEHHHHHH” here?
**A.** Its value is “soluble”.

**Q.** For “GMTYELSTDREFDLIAIGRACIDLNAVEYNRPMEETMTFSKYVGGSPANIVIGSSKLGLKAGFIGKIADDQHGRFIESYMRGVGVDTSNLVVDQEGHKTGLAFTEIKSPEECSILMYRQDVADLYLSPEEVNEAYIRRSKLLLVSGTALSKSPSREAVLKAIRLAKRNDVKVVFELDYRPYSWETPEETAVYYSLVAEQSDIVIGTREEFDVLENRTEKGDNDETIRYLFKHSPELIVIKHGVEGSFAYTKAGEAYRGYAYKTKVLKTFGAGDSYASAFLYALISGKGIETALKYGSASASIVVSKHSSSDAMPSVEEIEALIEKDETITIA”, which “soluble on expression in E. coli” value is on record?
**A.** Its value is “soluble”.

**Q.** With “MTINASNSATKKDKPAKYTMIKQYICEHIESGEWPQNAKVPSENELTQQFDVSRMTARRALQELTEQGILVRSQGAGTFVATFKSQSSLLEIRNISDEISDRGHQHKAKQLLLNSTAVTDEIAILLNLKNNEDVFYSEILHYENDDAIQLEQRFVNVSLVPDYLLQNFTQITPHEYLSSVAPLTEATHEIEAILASDEICQQLDIQSTTPCLQVKRRTWSKQGVVSVAILTSPGDKYRLGSHLKF” as the sequence, how does the “soluble on expression in E. coli” value read?
**A.** The value was “not soluble”.

**Q.** Which “soluble on expression in E. coli” value does the source give for “MSLKKLIAVAVLSACGSLAHANTNIPNYNTDAHLYEFTQTYDLVVPKGSQGQTNLWVPLPFNGEYQQVKSIHFEGNYMNAYVTENNKYGAKTLFATWNKDAQKRDLKVMMVIETKDREPMVKGALENYTPPKDIQYSVDVQEYLKATPHIKTDGIVKEFPDKILGKETNPLKKAELIHHWFVKNMERDNSVLGCGDGDVEKILTTGVLKGKCTDINSVFVALARAAGIPAREIFGIRLGAAEKMGKYSKGAFGSANEQGIANVSGGQHCRAEFYLAGFGWVPVDSADVAKMRLAEKKSVEDKDTQAVAKYLFGNWEANWVGFNHARDFDLYPQPELAPINNFGYPYAEVGGDPLNSFDPKEFKYDYVSKKLEGGSHHHHHH” here?
**A.** The value was “soluble”.

**Q.** Which “soluble on expression in E. coli” value does the source give for “DNRLKEENPDSTLRDTEYIDVGESPDGGKYRGVILFELGQLNKTNKIEKATLSLFWYYPEESRKEDTILEVYRPEKWCEEHISWGAREINTPWKNPGGDWYDKNGVSQGSTPYSTITFKSSSLPDNRYYELDVTELVREYISGKYENTGFLIKSRAEDSDYIAFYSSEWQNKNQMPRLSIEYKNE” here?
**A.** The value was “not soluble”.

**Q.** With “MFLSVFELFKIGIGPSSSHTMGPMTAANMFLREIMRCNFLRSSHTGISHIRVYLYGSLAFTGVGHATDRAVILGLLGEEAATVNPDNIDILLEKVTREKKVQPDGHPAYWFNLQSDLIFKRKEVLPGHTNGLAFEGLDADGNVLLRQTYYSIGGGFVVTEDELNCINGNTQSKTSKVPYPFDSARKMLSMAEKSGLSIAEMKRLNEETKMERSALNTGLDNIFSAITKCIDRGLSQEGELPGGLRVSRRAKKLYETLLENQKKNRNYPLLANDWLSVYAIAVNEENAAGGRVVTAPTNGAAGVVPAVLRYYLQFNDNSDQEGIHNFLLTAAAIGGVIKHNASISGAEVGCQGEVGTASSMAAAGLTAVLGGTPAQIENAAEIALEHHLGMTCDPVAGLVQIPCIERNAMGAVKAVTASSLALHGNGKHFVSLDACIETMRQTGHDMSERYKETSKAGLAVNAISC” as the sequence, how does the “soluble on expression in E. coli” value read?
**A.** The value was “not soluble”.

**Q.** Which “soluble on expression in E. coli” value does the source give for “MAVSVGEGPDTKPTARGQPAAVGRVVVLSGPSAVGKSTVVRCLRERIPNLHFSVSATTRCPRPGEVDGVDYHFIDPTRFQQLIDQGELLEWAEIHGGLHRSGTLAQPVRAAAATGVPVLIEVDLAGARAIKKTMPEAVTVFLAPPSWQDLQARLIGRGCETADVIQRRLDTARIELAAQGDFDKVVVNRRLESACAELVSLLVGTAPGSPGVPRGKLAAALEHHHHHH” here?
**A.** Its value is “soluble”.

**Q.** With “MEQNLKNIKISIIIPTLNEVGNIQQTIATTQPSVNIEVIVVDGGSQDDTVAIAQSLGVKVISSSPGRAVQMNTGAALAAGEILLFLHADTRLPVGFDEMIRAALQQPGVVAGAFALRIDADLAGLRWVEKGVYWRSHFFQMPYGDQAIFMTKAVFEKVGGFSELPIMEDFELMRRLKHIGKITVLGVAVITSGRRWLQRGVFQTTLINQVVIIAYLLGVAPAQLHSWYRQGKFFRIGGRLLEHHHHHH” as the sequence, how does the “soluble on expression in E. coli” value read?
**A.** The value was “soluble”.

**Q.** For “MAHHHHHHMGNTGVPSFVSTLGPPPPINLFKECQSPLTSGFSSWASFHWILLSDAFSHYYRPLECQTFYGCNFQKQLDAAANYNSFWPHHSRRLEAIRSNTPEQLCITSLHPPSRSPLTQQFPSGSFTQSPYGCRPRSLPCTAPQQWQMHRRSLQQGREHEAGRLLQQPLSFSLI”, which “soluble on expression in E. coli” value is on record?
**A.** Its value is “not soluble”.

**Q.** With “MQTSHSLPSAQLPLFQEAFWASNGAPLLDDVIDSPSSASIEEPAAFSELSLSGLPGHCLTLLAPILRELSEEQDARWLTLIAPPASLTHEWLRRAGLNRERILLLQAKDNAAALALSCEALRLGRSHTVVSWLEPLSRAARKQLSRAAQLGQAQSLNIRLG” as the sequence, how does the “soluble on expression in E. coli” value read?
**A.** The value was “soluble”.

**Q.** Which “soluble on expression in E. coli” value does the source give for “MPRPALRSRSLRRVYVKLPSGKTVIHYERKRNDIAICAICKKPLHGVKTNFLHKYSKSEKRPERPFGGYLCSSCLTQLIKATVRQQLQ” here?
**A.** Its value is “soluble”.

**Q.** With “MIRFAVIGTNWITRQFVEAAHESGKYKLTAVYSRSLEQAQHFANDFSVEHLFTSLEAMAESDAIDAVYIASPNSLHFSQTQLFLSHKINVICEKPLASNLAEVDAAIACARENQVVLFEAFKTACLPNFHLLRQALPKVGKLRKVFFNYCQYSSRYQRYLDGENPNTFNPAFSNGSIMDIGFYCLASAVALFGEPKSVQATASLLASGVDAQGVVVMDYGDFSVTLQHSKVSDSVLASEIQGEAGSLVIEKLSECQKVCFVPRGSQMQDLTQPQHINTMLYEAELFATLVDEHLVDHPGLAVSRITAKLLTEIRRQTGVIFPADSVKL” as the sequence, how does the “soluble on expression in E. coli” value read?
**A.** The value was “soluble”.

**Q.** With “MGSDKIHHHHHHMFKKVSRDPVHSEIYLYPLEILATDTKVVQRLRFLSQLAGATVVYPGATHTRFAHSLGTMHVAGLYARNLFKESDRIRIVRLAALLHDVGHGPFSHQFDDVVFKRYGYEDGHDEFRNRLITEKLPEEMMRVFNSYNERLKQAVIEDIRESVGEVSLEDAFQEIAKRVVEVYRGEETGSVDFNIIQGPLGADRLDFLLRDSYYSGVGHFAPMNVDRVLRNSLVKEVDGKEILCYHVKVVDNIYSILFSRFMMYKNVYFHKTSRAADLMIQEILLRACEILDLEERLKDLDEFLELTDYSILRELELKGDSETKKLVERFKNRDLWKMVVERPFSAEGFDPSELSLSAARNLIDKIVENIDRVLSSVNVEDSDKSILEEIRDNKEKFFRIDTPYKLTIFHPDEFLQNNVFLYDPKHDEILTVDEYVKKYPAYRLMVSNMIQIVRVYVTEDVREVLFKYGVIPEDGRRVITRW” as the sequence, how does the “soluble on expression in E. coli” value read?
**A.** Its value is “not soluble”.

**Q.** For “QVQLQQSGPELVRPGVSVKISCKGSGYTFIDEALHWVKQSHAESLEWIGVIRPYSGETNYNQKFKDKATMTVDISSSTAYLELARLTSEDSAIYYCARDWERGDFFDYWGQGTLVTVSSASTKGPSVFPLAPSSKSTSGGTAALGCLVKDYFPEPVTVSWNSGALTSGVHTFPAVLQSSGLYSLSSVVTVPSSSLGTQTYICNVNHKPSNTKVDKKVEPKSCD”, which “soluble on expression in E. coli” value is on record?
**A.** Its value is “soluble”.

**Q.** Which “soluble on expression in E. coli” value does the source give for “KQKRARLIYNPTSGQEIMKKNVAEVLDILESFGYETSAFQTTPRADSAKNEAARASQAGFDLVIAAGGDGTINEVVSGIAPLKRRPKVAIIPTGTTNDFARALKIPRGNPVEATKLIGKNQTIHMDIGRAYND” here?
**A.** Its value is “not soluble”.

**Q.** With “MRDEKRKAIPAIGFYPQEEISTGTTLIAMEYNGGVVVGTDSRTSAGSFITSRATNKITPITDNMVVCRSGSAADTQAIADIAKYHIDVYTMTENKPVTIYRSSQIFRQFLYNYREQLSASVLVAGWDEELGGQVYAIPIGGFVSRQRSTASGSGSTFVQGFLDSQWRPNLTLEECKAIVKQAVGLATFRDGSSGGVVRLAVINKAGSQFELFRPDKPGFPFVQTPTPHLSFPPHIEQVL” as the sequence, how does the “soluble on expression in E. coli” value read?
**A.** The value was “not soluble”.
